Reference: patent US20050277575A1 (published 2005)

Target: T1, S100A4 protein (recombinant human, GST tag removed) (human)
T1 chain: YVERW
Experiment: cell-based or functional assay

Binder: Ac-AGLREVYGASLASYMERW-NH2 [peptide SEQ ID NO 6, Ac-AGLREVYGASLASYMERW-amide]
- IC50 for inhibition of the accelerating effect of S100A4 on t-PA-dependent conversion of plasminogen to plasmin: 6 µM
